Experimental findings from PMC12173559 are described below.

The target of this assay is MERS-CoV receptor binding domain (RBD), biotinylated (MERS-CoV) (UniProt K9N5Q8). Put plainly: BLI; […] (10 µg/mL) […] (SA) biosensor for 300 s; analyte in kinetic buffer (PBST, 0.1% BSA) […], association 120 s, dissociation 180 s; […].

Take alpaca DPP4 (receptor): the Kd came out at 58.4 nM. With rhesus monkey DPP4 (receptor) the figure was 47.8 nM.
